Assays:
Assay in all cases: cell-based or functional assay
[1] = molecular target: membrane protein HA of recombinant human influenza virus A/WSN/33 (H1N1) (human influenza virus A/WSN/33 (H1N1)) (UniProt P03454)
[2] = molecular target: membrane protein HA of recombinant avian influenza virus QH-WSN (HA of H5N1 strain A/bar-headed goose/Qinghai/1/05) (avian influenza virus H5N1, strain A/bar-headed goose/Qinghai/1/05)
[3] = molecular target: membrane protein HA of recombinant human influenza virus A/WSN/33 (H1N1) (human influenza virus A/WSN/33 (H1N1)) (UniProt P03454); remark: listed apart in the source
[4] = molecular target: membrane protein HA of recombinant avian influenza virus QH-WSN (HA of H5N1 strain A/bar-headed goose/Qinghai/1/05) (avian influenza virus H5N1, strain A/bar-headed goose/Qinghai/1/05); remark: listed apart in the source

Work on “fusion protein HR1-EGFP expressed on the membrane of MDCK cells (from UniProt P08138 251-272)” yielded a plaque inhibitory rate on cells expressing the fusion protein [1] of 11% and a plaque inhibitory rate on cells expressing the fusion protein [2] of 25%.

“fusion protein HR2-EGFP expressed on the membrane of MDCK cells (from UniProt P08138 251-272)” was tested, and the plaque inhibitory rate on cells expressing the fusion protein [1] was 43% and the plaque inhibitory rate on cells expressing the fusion protein [2] was 57.8%.

B1: polypeptide HR1 combined with HR2B (peptide)
peptide 1: KESTQKAIDGVTNKVNSIIDK
peptide 2: NAELLVLMENERTLDFHDSNVKN
Work on B1 yielded an IC50, plaque inhibition on MDCK cells, peptide combination [3] of 62.5 µM and an IC50, plaque inhibition on MDCK cells, peptide combination [4] of 36.7 µM.

B2: polypeptide HR1 combined with HR2C (peptide)
peptide 1: KESTQKAIDGVTNKVNSIIDK
peptide 2: FHDSNVKNLYDKVRLQ
Molecule B2 has an IC50, plaque inhibition on MDCK cells, peptide combination [3] of 30 µM and an IC50, plaque inhibition on MDCK cells, peptide combination [4] of 41.6 µM.

B3: polypeptide HR1 combined with HR2A (peptide)
peptide 1: KESTQKAIDGVTNKVNSIIDK
peptide 2: RRIENLNKKMEDGFLDVWTY
Molecule B3 has an IC50, plaque inhibition on MDCK cells, peptide combination [3] of 52.9 µM and an IC50, plaque inhibition on MDCK cells, peptide combination [4] of 43.6 µM.
